According to patent US20040204348A1:
Bridges are numbered along the chain shown (N, C = ends). L15 (R1 : phenyl) = linker L15: -CO-CH2-NH-CO-CH2-CH2-CH(CO-NH-CH2-CO-NH-R1)-NH- with R1 = phenyl (anilide)

Target: recombinant soluble uPAR (suPAR), Q03405
Test: SPR (Biacore 3000), competition with scuPA
Settings: remark: other sources report otherwise

recombinant soluble uPAR (suPAR), Q03405, sequence (Q03405 23-299 limits assumed): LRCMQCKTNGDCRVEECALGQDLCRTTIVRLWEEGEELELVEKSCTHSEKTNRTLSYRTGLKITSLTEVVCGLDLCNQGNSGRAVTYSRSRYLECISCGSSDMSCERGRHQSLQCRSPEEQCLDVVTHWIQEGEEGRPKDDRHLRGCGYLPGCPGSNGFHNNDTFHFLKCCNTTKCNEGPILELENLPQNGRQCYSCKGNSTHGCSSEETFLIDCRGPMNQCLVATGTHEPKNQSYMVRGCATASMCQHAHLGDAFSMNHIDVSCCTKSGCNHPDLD

Kd: 4 nM
B1: Å36 (peptide)
peptide: VSNKYFSNIHW
modifications: linker N-C via L15 (R1 : phenyl); also: cyclised by linker L15 between X1 N and X11 carbonyl
